Results published in EP4725501A1 (Staidson (Beijing) Biopharmaceuticals Co., Ltd., dated 2026).
Substitutions are numbered along the chain they refer to.

B1: M3-K2-8 (antibody, V domains shown)
VH: QVQLVQSGAEVKKPGASVKVSCKASGYTFTGKWIEWVRQAPGQGLEWMGEILPGSGSTDYNERFKDRATFTADTSTSTAYMELSSLRSEDTAVYYCVRSEDLWGQGTLVTVSS
VL: DIVLTQSPDSLAVSLGERATINCKSSQNLFNSRTRKNYLAWFQQKPGQSPKLLIYWASTRESGVPDRFSGSGSGTDFTLTISSLQAEDVAVYYCKQSYIPFTFGGGTKVEIK
notes: Humanized M3-K2
B2: M3-K2-6 (antibody, V domains shown)
VH: B1 VH with M48I
VL: B1 VL
notes: Humanized M3-K2
B3: M3-K2-11 (antibody, V domains shown)
VH: B1 VH with A68V, A79V
VL: B1 VL with L4M
notes: Humanized M3-K2
B4: humM2mc51-1 (antibody, V domains shown)
VH: QVQLQESGPGLVKPSETLSLTCTVSGYSITSDYAWNWIRQPPGKKLEWMGYISYSGRTSYNPSLKSRITISRDTSKNQFSLKLSSVTAADTAVYYCSRHYGDYWGQGTLVTVSS
VL: EIVMTQSPATLSVSPGERATLSCKASQNVGTNVAWYQQKPGQSPRALIYSASYRYSGIPARFSGSGSGTEFTLTISSLQSEDFAVYFCHQYNSNPLTFGGGTKVEIK
notes: Humanized anti-MASP2 antibody; also called anti-MASP2 antibody humM2mc51-1; parent antibody humM2mc51-1
B5: humM2mc51-1-ES93DA (antibody, V domains shown)
VH: B4 VH
VL: B4 VL with E1D, S93A
notes: Mutant of humM2mc51-1
B6: humM2mc51-1-N92Q (antibody, V domains shown)
VH: B4 VH
VL: B4 VL with N92Q
notes: VL CDR3 mutant of humM2mc51-1
B7: humM2mc51-1-N92S (antibody, V domains shown)
VH: B4 VH
VL: B4 VL with N92S
notes: VL CDR3 mutant of humM2mc51-1
B8: humM2mc51-1-S93E (antibody, V domains shown)
VH: B4 VH
VL: B4 VL with S93E
notes: VL CDR3 mutant of humM2mc51-1
B9: M3-K2-7 (antibody, V domains shown)
VH: B1 VH with M48I
VL: B1 VL with L4M
B10: M3-K2-10 (antibody, V domains shown)
VH: B1 VH with A68V, A79V
VL: B1 VL
B11: M3-K1-3 (antibody, V domains shown)
VH: B1 VH
VL: B1 VL with L4M, N28S, F30L, R33V, N37T, F42Y, S49P, I99T, P100L, F101P
B12: M3-K1-1 (antibody, V domains shown)
VH: B1 VH with M48I
VL: B1 VL with L4M, N28S, F30L, R33V, N37T, F42Y, S49P, I99T, P100L, F101P
B13: M3-K1-4 (antibody, V domains shown)
VH: B1 VH
VL: B1 VL with L4M, N28S, F30L, R33V, N37T, F42Y, I99T, P100L, F101P
B14: M3-K1-6 (antibody, V domains shown)
VH: B1 VH with A68V, A79V
VL: B1 VL with L4M, N28S, F30L, R33V, N37T, F42Y, I99T, P100L, F101P
B15: M3-K1-2 (antibody, V domains shown)
VH: B1 VH with M48I
VL: B1 VL with L4M, N28S, F30L, R33V, N37T, F42Y, I99T, P100L, F101P
B16: M3-K1-5 (antibody, V domains shown)
VH: B1 VH with A68V, A79V
VL: B1 VL with L4M, N28S, F30L, R33V, N37T, F42Y, S49P, I99T, P100L, F101P
B17: M3-K2-9 (antibody, V domains shown)
VH: B1 VH
VL: B1 VL with L4M
B18: M3-K2-5 (antibody, V domains shown)
VH: B1 VH with A68V, A79V
VL: EIVLTQSPATLSVSPGERATLSCKSSQNLFNSRTRKNYLAWFQQKPGQSPRLLIYWASTRESGIPARFSGSGSGTEFTLTISSLQSEDFAVYYCKQSYIPFTFGGGTKVEIK

Molecular target: T1, human MASP3-His (human, UniProt P48740-2 20-728)
T1 construct: also called human MASP3 antigen; not shown: His tag added to the terminal
T1 sequence (looked up): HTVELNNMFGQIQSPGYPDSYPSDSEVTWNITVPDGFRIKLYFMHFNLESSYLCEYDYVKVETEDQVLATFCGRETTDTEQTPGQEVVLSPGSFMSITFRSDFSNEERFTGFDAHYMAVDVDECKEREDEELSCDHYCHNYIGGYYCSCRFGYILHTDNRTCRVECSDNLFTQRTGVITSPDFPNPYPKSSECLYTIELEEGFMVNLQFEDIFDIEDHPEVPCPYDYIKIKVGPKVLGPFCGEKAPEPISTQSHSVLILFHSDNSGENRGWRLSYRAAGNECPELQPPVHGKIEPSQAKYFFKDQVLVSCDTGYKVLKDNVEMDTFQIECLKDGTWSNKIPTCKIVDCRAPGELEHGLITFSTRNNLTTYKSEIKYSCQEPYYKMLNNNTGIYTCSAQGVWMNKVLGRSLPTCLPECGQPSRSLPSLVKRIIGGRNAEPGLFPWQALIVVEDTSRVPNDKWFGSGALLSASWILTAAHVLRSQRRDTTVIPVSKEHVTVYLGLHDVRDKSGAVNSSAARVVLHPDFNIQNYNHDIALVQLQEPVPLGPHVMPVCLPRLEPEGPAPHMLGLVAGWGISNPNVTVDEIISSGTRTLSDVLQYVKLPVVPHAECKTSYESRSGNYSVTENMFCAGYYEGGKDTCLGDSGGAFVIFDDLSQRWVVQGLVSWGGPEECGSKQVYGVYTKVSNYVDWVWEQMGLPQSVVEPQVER
Assay: SPR (Biacore 8K); antibody immobilized on CM5 chip, antigen as analyte

Row | Kd [nM] | koff [s⁻¹] | kon [M⁻¹ s⁻¹] | Binder
1 | 1.04 | 0.000189 | 182000 | B1
2 | 1.45 | 0.00025 | 173000 | B2
3 | 1.34 | 0.000218 | 163000 | B3

Molecular target: T2, monkey MASP3-His (monkey)
T2 construct: monkey species not further specified
Assay: as above

Row | Kd [nM] | koff [s⁻¹] | kon [M⁻¹ s⁻¹] | Binder
4 | 0.77 | 0.000137 | 178000 | B1
5 | 0.887 | 0.000147 | 165000 | B2
6 | 0.86 | 0.000144 | 167000 | B3

Molecular target: T3, mouse MASP3-His (mouse, UniProt P98064-2 25-733)
T3 construct: not shown: His tag added to the terminal
T3 sequence (looked up): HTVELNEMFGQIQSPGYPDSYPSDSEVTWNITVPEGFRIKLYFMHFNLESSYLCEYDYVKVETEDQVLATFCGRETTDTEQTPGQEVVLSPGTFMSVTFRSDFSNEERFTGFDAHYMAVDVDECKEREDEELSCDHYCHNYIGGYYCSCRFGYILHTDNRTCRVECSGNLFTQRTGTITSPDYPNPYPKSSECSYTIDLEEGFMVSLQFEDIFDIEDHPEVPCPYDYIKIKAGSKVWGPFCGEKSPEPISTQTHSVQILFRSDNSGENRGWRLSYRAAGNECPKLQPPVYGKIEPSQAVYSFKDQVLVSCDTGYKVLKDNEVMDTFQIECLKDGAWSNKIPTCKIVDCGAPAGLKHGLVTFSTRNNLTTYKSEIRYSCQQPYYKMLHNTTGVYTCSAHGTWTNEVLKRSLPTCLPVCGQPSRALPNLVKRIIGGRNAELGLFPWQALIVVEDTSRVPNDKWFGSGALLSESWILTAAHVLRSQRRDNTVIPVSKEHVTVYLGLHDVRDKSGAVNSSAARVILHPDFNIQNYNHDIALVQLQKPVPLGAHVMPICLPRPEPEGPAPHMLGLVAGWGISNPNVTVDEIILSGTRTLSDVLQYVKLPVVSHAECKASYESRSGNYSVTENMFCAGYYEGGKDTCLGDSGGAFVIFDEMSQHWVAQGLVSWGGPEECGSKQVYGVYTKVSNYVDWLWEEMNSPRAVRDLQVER
Assay: as above

Row | Kd [nM] | koff [s⁻¹] | kon [M⁻¹ s⁻¹] | Binder
7 | 0.77 | 0.000137 | 178000 | B1
8 | 0.887 | 0.000149 | 168000 | B2
9 | 0.86 | 0.000145 | 168000 | B3

Molecular target: T4, human MASP2 (R444Q) - His (human, UniProt O00187 16-686)
T4 construct: not shown: His tag at the C-terminus
T4 sequence (O00187 16-686 R444Q limits assumed): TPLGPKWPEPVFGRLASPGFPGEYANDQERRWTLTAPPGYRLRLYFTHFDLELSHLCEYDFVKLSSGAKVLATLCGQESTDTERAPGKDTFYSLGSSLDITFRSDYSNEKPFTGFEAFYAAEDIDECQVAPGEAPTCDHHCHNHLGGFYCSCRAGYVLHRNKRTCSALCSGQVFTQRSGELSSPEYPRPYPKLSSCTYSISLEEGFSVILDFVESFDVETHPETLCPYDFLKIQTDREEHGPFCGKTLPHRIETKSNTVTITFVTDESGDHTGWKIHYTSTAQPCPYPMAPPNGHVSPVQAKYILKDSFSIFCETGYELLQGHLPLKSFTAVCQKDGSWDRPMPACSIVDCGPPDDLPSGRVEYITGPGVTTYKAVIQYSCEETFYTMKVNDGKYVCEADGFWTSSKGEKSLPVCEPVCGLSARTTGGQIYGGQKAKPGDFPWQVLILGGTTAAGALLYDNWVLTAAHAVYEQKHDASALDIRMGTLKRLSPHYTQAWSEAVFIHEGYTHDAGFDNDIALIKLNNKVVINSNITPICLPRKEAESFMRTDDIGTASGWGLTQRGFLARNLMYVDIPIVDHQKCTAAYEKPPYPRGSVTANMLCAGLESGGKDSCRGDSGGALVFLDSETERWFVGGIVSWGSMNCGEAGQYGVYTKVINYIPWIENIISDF
Assay: ELISA; human MASP2 (R444Q)-His coated 0.1 ug/well, antibody titrated, goat anti-human IgG HRP

Row | EC50 [nM] | Binder
10 | 0.086 | B4
11 | 0.082 | B5
12 | 0.072 | B6
13 | 0.079 | B7
14 | 0.085 | B8

Molecular target: MASP2 in normal human plasma (human, UniProt O00187 16-686)
Sequence (O00187 16-686 limits assumed): as the sequence (O00187 16-686 R444Q limits assumed) above, with Q429R counted along it
Assay: cell-based or functional assay

Row | IC50 (nM), inhibition of complement C4b deposition (mannan-coated plate, 1% human plasma) [nM] | Binder
15 | 0.055 | B4
16 | 0.045 | B5
17 | 0.11 | B6
18 | 0.09 | B7
19 | 0.05 | B8

Molecular target: T1, human MASP3-His
Assay: cell-based or functional assay

Row | IC50 (nM), inhibition of MASP3 enzyme activity (fluorescent tripeptide cleavage) [nM] | Binder
20 | 21.9 | B1
21 | 25.2 | B9
22 | 37 | B10
23 | 24.2 | B11
24 | 31.5 | B12
25 | 29.9 | B13
26 | 28.2 | B14
27 | 31.2 | B15
28 | 27.9 | B16
29 | 33.7 | B17
30 | 29.5 | B2
31 | 26.4 | B3

Molecular target: T5, MASP3 in Factor D depleted human plasma (human, UniProt P48740-2 20-728)
T5 sequence (looked up): T1 sequence (looked up)
Assay: cell-based or functional assay

Row | Binder | Inhibit hemolysis IC50 [nM]
32 | B1 | 2.11
33 | B18 | 3.41
34 | B2 | 3.18
35 | B3 | 2.2
